Assay results: article PMC4842972, “Identification of residues crucial for the interaction between human neuroglobin and the α-subunit of heterotrimeric Gi protein” (Scientific Reports, 2016)
Changes are numbered by the printed parent chain. Names and notes keep the numbering of the source.

Legend:
Assay in all cases: pull-down; GST-ferric Ngb (or GST alone) immobilised on glutathione-Sepharose 4B beads, incubated with truncated Gαi1; 10 mM HEPES, 150 mM NaCl, 10 mM MgCl2, 10 uM GDP, 0.1% Tween20, pH 7.4; 1 h at 4 °C; Western blot with anti-Gαi1 monoclonal antibody
Settings in all cases: both partners purified
[1] = biological target: T1, human WT truncated Gαi1 protein (residues 26-354), GDP-bound form (human, UniProt P63096 26-354)
T1 construct: human Gαi1 (α-subunit of heterotrimeric Gi protein), residues 26-354; lacks the N-terminal disordered region (25 amino acids); Cloned in pET151/D-TOPO with a TEV site after the His6-tag; also called WT Gαi1; not shown: His6, N-terminal, cleaved

[2] = biological target: T2, human truncated Gαi1 R86A single mutant, GDP-bound form (human, UniProt P63096 26-354, R86A)
T2 construct: human Gαi1, residues 26-354, with R86A; site-directed mutant of the truncated Gαi1 construct; also called R86A Gαi1; not shown: His6, N-terminal, cleaved

[3] = biological target: T3, human truncated Gαi1 K180L single mutant, GDP-bound form (human, UniProt P63096 26-354, K180L)
T3 construct: human Gαi1, residues 26-354, with K180L (Leu is the corresponding residue of human Gαs); site-directed mutant of the truncated Gαi1 construct; also called K180L Gαi1; not shown: His6, N-terminal, cleaved

[4] = biological target: T4, human truncated Gαi1 E236Q single mutant, GDP-bound form (human, UniProt P63096 26-354, E236Q)
T4 construct: human Gαi1, residues 26-354, with E236Q; site-directed mutant of the truncated Gαi1 construct; also called E236Q Gαi1; not shown: His6, N-terminal, cleaved

[5] = biological target: T5, human truncated Gαi1 E238N, E239Q double mutant, GDP-bound form (human, UniProt P63096 26-354, E238N | E239Q)
T5 construct: human Gαi1, residues 26-354, with E238N and E239Q (the corresponding residues of human Gαs); site-directed mutant of the truncated Gαi1 construct; also called E238N, E239Q Gαi1 double mutant; not shown: His6, N-terminal, cleaved

[6] = biological target: T6, human truncated Gαi1 K67A single mutant, GDP-bound form (human, UniProt P63096 26-354, K67A)
T6 construct: human Gαi1, residues 26-354, with K67A; site-directed mutant of the truncated Gαi1 construct; also called K67A Gαi1; not shown: His6, N-terminal, cleaved
T6 sequence (P63096 26-354 K67A): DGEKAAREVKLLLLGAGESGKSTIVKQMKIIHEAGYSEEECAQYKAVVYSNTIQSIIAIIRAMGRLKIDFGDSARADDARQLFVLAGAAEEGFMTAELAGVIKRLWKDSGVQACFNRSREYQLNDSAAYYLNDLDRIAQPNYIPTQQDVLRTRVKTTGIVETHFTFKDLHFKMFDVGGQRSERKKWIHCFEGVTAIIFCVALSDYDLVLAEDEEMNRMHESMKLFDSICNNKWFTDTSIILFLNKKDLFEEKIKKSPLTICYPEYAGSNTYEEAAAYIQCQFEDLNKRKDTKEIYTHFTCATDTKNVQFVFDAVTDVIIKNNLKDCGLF

T1 sequence (P63096 26-354): as the sequence (P63096 26-354 K67A) above, with A42K counted along it
T3 sequence (P63096 26-354 K180L): as the sequence (P63096 26-354 K67A) above, with A42K, K155L counted along it
T5 sequence (P63096 26-354 E238N/E239Q): as the sequence (P63096 26-354 K67A) above, with A42K, E213N, E214Q counted along it
T2 sequence (P63096 26-354 R86A): as the sequence (P63096 26-354 K67A) above, with A42K, R61A counted along it
T4 sequence (P63096 26-354 E236Q): as the sequence (P63096 26-354 K67A) above, with A42K, E211Q counted along it

B1: GST-human ferric E151Q Ngb mutant (natural protein)
chain: MERPEPELIRQSWRAVSRSPLEHGTVLFARLFALEPDLLPLFQYNCRQFSSPEDCLSSPEFLDHIRKVMLVIDAAVTNVEDLSSLEEYLASLGRKHRAVGVKLSSFSTVGESLLYMLEKCLGPAFTPATRAAWSQLYGAVVQAMSRGWDGQ
notes: human neuroglobin (Ngb) with E151Q (the residue of bush baby Ngb at this position); in pGEX-4T-1; Ferric form; made by site-directed mutagenesis of GST-Ngb; also called GST-human Ngb mutant; source: E. coli BL21 (DE3), purified (glutathione-Sepharose 4B)
B1: binds [1].

B2: GST-human ferric R97C Ngb mutant (natural protein)
chain: B1 chain with R97C, Q151E
notes: human neuroglobin (Ngb) with R97C (the residue of megabat Ngb at this position); in pGEX-4T-1; Ferric form; made by site-directed mutagenesis of GST-Ngb; also called GST-human Ngb mutant; source: E. coli BL21 (DE3), purified (glutathione-Sepharose 4B)
B2: binds [1].

B3: GST-human ferric WT Ngb (neuroglobin) (natural protein)
chain: B1 chain with Q151E
notes: human neuroglobin (Ngb); human Ngb cDNA cloned into pGEX-4T-1; also called GST-human WT Ngb; GST-human Ngb; source: E. coli BL21 (DE3), purified (glutathione-Sepharose 4B)
B3: binds [2]; binds [3]; binds [4]. B3: binds [5]; binds [6]; binds [1].
